From article PMC12421860

Key:
[1] = target: PorK with a C-terminal twin strep tag (PorK-Strep), subunit of the purified PorKN ring (Porphyromonas gingivalis); assay: cryo-EM structure; PorKN rings purified from P. gingivalis through the twin strep tag on PorK (Strep-Tactin, 0.5% Triton X-100); single and double rings; whole rings at 7.4 Å (single) and 5.6 Å (double) with 33-fold symmetry; focused refinement of a segment in C1 to 3.2 Å
[2] = target: PorN, subunit of the purified PorKN ring (Porphyromonas gingivalis (endogenous in P. gingivalis)); assay: as above

PorK with a C-terminal twin strep tag (PorK-Strep), subunit of the purified PorKN ring (natural protein)
stoichiometry N [1]: 33

PorN, subunit of the purified PorKN ring (natural protein)
stoichiometry N [2]: 33
